Consider 1 substance from paper PMC7809101, “Fetal bovine serum albumin inhibits antimicrobial peptide activity and binds drug only in complex with α1-antitrypsin” (Scientific Reports, 2021).

In data set [1] the target is T1, protein B (α1-antitrypsin) (Bos taurus, UniProt P34955).
T1 sequence (P34955 25-416): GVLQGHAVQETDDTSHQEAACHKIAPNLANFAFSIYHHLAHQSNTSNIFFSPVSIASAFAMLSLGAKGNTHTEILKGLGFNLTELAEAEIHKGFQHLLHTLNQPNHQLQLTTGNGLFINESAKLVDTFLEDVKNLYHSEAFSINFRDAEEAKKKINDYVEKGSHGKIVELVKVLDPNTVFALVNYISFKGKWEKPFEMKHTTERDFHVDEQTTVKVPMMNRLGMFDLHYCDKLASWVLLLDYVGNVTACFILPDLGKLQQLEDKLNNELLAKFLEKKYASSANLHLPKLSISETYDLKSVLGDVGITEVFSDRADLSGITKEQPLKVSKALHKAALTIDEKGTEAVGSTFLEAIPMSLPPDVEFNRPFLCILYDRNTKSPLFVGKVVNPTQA
In words: Band shift of AMPs by protein B. The format is binding, bovine. The arrangement: The homogeneities of collected protein A (albumin), protein B (α1-antitrypsin), protein C (serotransferrin) and protein D complex; from tissue; host or cells: fetal bovine serum (70% ammonium sulfate fraction, FPLC Mono Q). To be noted: AMP 4 μg; protein 10 μg (Suppl. Fig. 3a); PC buffer, room temperature, 30 min; 8% horizontal native PAGE. The protocol:
(§1) Various AMPs (4 μg each) were incubated with fetal bovine serum (FBS) components at room temperature in 10 μl PC buffer for 30 min and subjected to horizontal native 8% PAGE, pH8.0 or pH8.8, and Coomassie Blue staining.

Data set [2] concerns Apo-AI. The conditions noted are these: cited from earlier work. The text has this: In addition to protein D, the serum protein apolipoprotein AI (Apo-AI) was also pulled down from crude fetal bovine serum by immobilized TP4-A12I,A15I, but in a less amount (Fig. 2a). The Apo-AI with Mr = 28,080 Da is the major constituent of high-density lipoprotein (HDL), which is involved in the removal of cholesterol from peripheral tissues and its catabolism. […] The amount of Apo-A1 in fetal bovine serum was much less than that of protein D (Fig. 8a, b). Int ...

In data set [3] the test system is fetal bovine serum (FBS). In words: Band shift of AMPs by fetal bovine serum. The conditions noted are these: 10–40% FBS; AMP 4 μg; PC buffer, room temperature, 30 min; horizontal native 8% PAGE. The format is binding. The procedure: as §1
The subject of data set [4] is Escherichia coli K-12 (MG1655). The data set can be described thus: Antimicrobial (bactericidal) activity against E. coli, effect of serum or serum proteins. The data set is classed as cell-based. The conditions noted are these: 5% (v/v) FBS in PBS, 37 °C; remaining viable cells (cfu). The procedure:
The Gram-negative bacteria Escherichia coli K-12 (MG1655) was cultured and plated in/on Luria–Bertani broth/agar plate (Merck Millipore, Darmstadt, Germany). The Gram-positive Staphylococcus aureus (ATCC 6538P) was cultured and plated in tryptic soy broth/agar (BD, MD, USA). The fungus Candida albicans (ATCC 14,053) was cultured and plated in YM broth/agar (BD, MD, USA). The bacteria were grown overnight, washed, and diluted 1:2000 in phosphate buffered saline (PBS), pH 7.5 or DMEM (Life Biotech, California, USA), pH 7.4. Bacteria (ca. 1 × 10^6 colony-forming units, cfu) were mixed with antimicrobial peptides (AMP) in 100 μl PBS and incubated at 37 °C (for bacteria) and at 30 °C (for fungus). Serial dilutions of each AMP-treated bacteria in PBS/DMEM supplemented with FBS were prepared and plated for the determination of remaining viable cells (expressed as cfu). At least three independent experiments were performed for each assay to determine the average value with standard deviation. MBC was defined as the lowest AMP concentration that kills 99.9% of the original inoculum.

Data set [5] deals with T2, protein D (albumin and α1-antitrypsin complex) (Bos taurus, UniProt P02769+P34955).
T2 construct: The active components were further purified by fast performance liquid chromatography (FPLC) Mono Q and S12 column chromatography from the 70% saturated fraction; from tissue; host or cells: fetal bovine serum (70% ammonium sulfate fraction, FPLC Mono Q and Superose 12)
The data set can be described thus: Band shift of AMPs by protein D. The format is binding, bovine. The conditions noted are these: AMP 4 μg; protein 10 μg (Suppl. Fig. 3a); PC buffer, room temperature, 30 min; 8% horizontal native PAGE.

T2 sequence (P02769 25-607, one chain of several): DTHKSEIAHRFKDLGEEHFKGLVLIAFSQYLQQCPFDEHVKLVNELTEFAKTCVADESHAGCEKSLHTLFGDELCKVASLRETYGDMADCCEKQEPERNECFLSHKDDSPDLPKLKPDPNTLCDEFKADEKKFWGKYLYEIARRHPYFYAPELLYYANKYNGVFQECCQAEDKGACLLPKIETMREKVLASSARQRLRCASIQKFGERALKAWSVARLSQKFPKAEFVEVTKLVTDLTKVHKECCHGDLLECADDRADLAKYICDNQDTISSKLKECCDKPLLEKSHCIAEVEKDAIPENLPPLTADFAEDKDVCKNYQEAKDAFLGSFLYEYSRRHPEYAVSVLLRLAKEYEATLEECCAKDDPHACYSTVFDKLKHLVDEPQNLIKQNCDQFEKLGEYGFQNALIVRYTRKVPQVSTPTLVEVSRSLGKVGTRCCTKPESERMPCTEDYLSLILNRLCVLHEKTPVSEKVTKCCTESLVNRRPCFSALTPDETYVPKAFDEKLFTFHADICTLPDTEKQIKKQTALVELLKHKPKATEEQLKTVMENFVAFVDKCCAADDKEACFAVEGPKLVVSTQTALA

In the case of “LL37: human AMP LL37 [reference compound]”, the “binding to protein B (band shift)” value in data set [1] was “not by protein A and protein B”. Besides, the “effect of Apo-AI on antimicrobial and cytotoxic activities” value in data set [2] is “inhibits its antimicrobial and cytotoxic activities”. Further, the “mobility of AMP in band shift assay with FBS” value in data set [3] is listed as “retarded”. In addition, in data set [4], the “effect of FBS on antimicrobial activity against E. coli” value is on record as “serum-mediated repression”. For the same substance, in data set [5], the “binding to protein D (band shift)” value was “also bound by protein D”.
